Ends that are not written are not given here.
Molecular target: the molecule itself
Experiment: analytical ultracentrifugation; self-association of the peptide

B1: Construct 12 (AP6) (peptide)
peptide: CGGGEIWKQHEEALKKLFAFHFILPFIIMAIAMVHLLFLFGEGL
modifications: also: acetylated (position not given here)
notes: Designed amphiphilic helical peptide made by solid-phase synthesis; Heme cofactors may have been present; also called amphiphilic construct AP6
binding result: binds
